Assay results taken from the supplement of paper PMC11316812.
± gives the standard deviation of the averaged measurements.

What was measured:
hTERT-HMEC = assay: percentage of EdU-negative (G0-arrested) nuclei per well, 72 h; higher = more G0 arrest; conditions: reference: sequence is the full UniProt precursor, the tested protein was the secreted form or ectodomain
MCF7 = assay: as above; conditions: reference: sequence is the full UniProt precursor, the tested protein was the secreted form or ectodomain
[1] = protein concentration 0.022665 µM
[2] = protein concentration 0.03125 µM
[3] = protein concentration 0.22665 µM
[4] = protein concentration 0.3125 µM
[5] = protein concentration 0.0195 µM
[6] = protein concentration 0.00875 µM
[7] = protein concentration 0.0875 µM
[8] = protein concentration 0.0225 µM
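Also: secreted proteins added to cultured cells, EdU pulse at the end, nuclei found by Hoechst imaging, EdU status from nuclear versus surrounding ring intensity ratio, PBS as neutral control.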

For “MRSAAVLALLLCAGQVTALPVNSPMNKGDTEVMKCIVEVISDTLSKPSPMPVSQECFETLRGDERILSILRHQNLLKELQDLALQGAKERAHQQKKHSGFEDELSEVLENQSSQAELKEAVEEPSSKDVMEKREDSKEAEKSGEATDGARPQALPEPMQESKAEGNNQAPGEEEEEEEEATNTHPPASLPSQKYPGPQAEGDSEGLSQGLVDREKGLSAEPGWQAKREEEEEEEEEAEAGEEAVPEEEGPTVVLNPHPSLGYKEIRKGESRSEALAVDGAGKPGAEEAQDPEGKGEQEHSQQKEEEEEMAVVPQGLFRGGKSGELEQEEERLSKEWEDSKRWSKMDQLAKELTAEKRLEGQEEEEDNRDSSMKLSFRARAYGFRGPGPQLRRGWRPSSREDSLEAGLPLQVRGYPEEKKEEEGSANRRPEDQELESLSAIEAELEKVAHQLQALRRG”, the “percentage of EdU-negative” value (hTERT-HMEC; [1]) was 4.31 ± 0.57%, the “percentage of EdU-negative” value (hTERT-HMEC; [2]) was 5.57 ± 0.62% and the “percentage of EdU-negative” value (hTERT-HMEC; [3]) was 7.26 ± 0.12%. For the same sequence, the “percentage of EdU-negative” value (hTERT-HMEC; [4]) was 5.39 ± 0.89%, the “percentage of EdU-negative” value (MCF7; [1]) was 24.2 ± 2.3% and the “percentage of EdU-negative” value (MCF7; [2]) was 26.2 ± 1.6%. The “percentage of EdU-negative” value (MCF7; [3]) was 24.9 ± 1.5% and the “percentage of EdU-negative” value (MCF7; [4]) was 25.6 ± 1.5%.

“MIIDSSRIPSFTQLHSTMTRAPLLLLCVALVLLGHVNGATVRNEDKWKPLNNPRNRDLFFRRLQAYFKGRGLDLGTFPNPFPTNENPRPLSFQSELTASASADYEEQKNSFHNYLKG [Q6UXQ4]” was tested, and the “percentage of EdU-negative” value (hTERT-HMEC; [5]) was 4.53 ± 0.63%, the “percentage of EdU-negative” value (hTERT-HMEC; protein concentration 0.195 µM) was 7.36 ± 0.4% and the “percentage of EdU-negative” value (MCF7; [5]) was 24.6 ± 2.1%. For the same sequence, the “percentage of EdU-negative” value (MCF7; protein concentration 0.195 µM) was 25.2 ± 1%.

With “MVPAAGALLWVLLLNLGPRAAGAQGLTQTPTEMQRVSLRFGGPMTRSYRSTARTGLPRKTRIILEDENDAMADADRLAGPAAAELLAATVSTGFSRSSAINEEDGSSEEGVVINAGKDSTSRELPSATPNTAGSSSTRFIANSQEPEIRLTSSLPRSPGRSTEDLPGSQATLSQWSTPGSTPSRWPSPSPTAMPSPEDLRLVLMPWGPWHCHCKSGTMSRSRSGKLHGLSGRLRVGALSQLRTEHKPCTYQQCPCNRLREECPLDTSLCTDTNCASQSTTSTRTTTTPFPTIHLRSSPSLPPASPCPALAFWKRVRIGLEDIWNSLSSVFTEMQPIDRNQR [Q9BUN1]” the “percentage of EdU-negative” value (hTERT-HMEC; [6]) was 4.62 ± 0.76%, the “percentage of EdU-negative” value (hTERT-HMEC; [7]) was 10.6 ± 1.3% and the “percentage of EdU-negative” value (MCF7; [6]) was 25.2 ± 0.46%. For the same sequence, the “percentage of EdU-negative” value (MCF7; [7]) was 26.9 ± 2.7%.

“MVLAAPLLLGFLLLALELRPRGEAAEGPAAAAAAAAAAAAAGVGGERSSRPAPSVAPEPDGCPVCVWRQHSRELRLESIKSQILSKLRLKEAPNISREVVKQLLPKAPPLQQILDLHDFQGDALQPEDFLEEDEYHATTETVISMAQETDPAVQTDGSPLCCHFHFSPKVMFTKVLKAQLWVYLRPVPRPATVYLQILRLKPLTGEGTAGGGGGGRRHIRIRSLKIELHSRSGHWQSIDFKQVLHSWFRQPQSNWGIEINAFDPSGTDLAVTSLGPGAEGLHPFMELRVLENTKRSRRNLGLDCDEHSSESRCCRYPLTVDFEAFGWDWIIAPKRYKANYCSGQCEYMFMQKYPHTHLVQQANPRGSAGPCCTPTKMSPINMLYFNDKQQIIYGKIPGMVVDRCGCS” was tested, and the “percentage of EdU-negative” value (hTERT-HMEC; [2]) was 4.52 ± 0.24%, the “percentage of EdU-negative” value (hTERT-HMEC; [4]) was 5.2 ± 0.9% and the “percentage of EdU-negative” value (MCF7; [2]) was 24.2 ± 2.7%. For the same sequence, the “percentage of EdU-negative” value (MCF7; [4]) was 26.2 ± 3.2%.

For “MLTRLVLSAHLSSTTSPPWTHAAISWELDNVLMPSPRIWPQVTPTGRSASVRSEGNTSSLWNFSAGQDVHAIVTRTCESVLSSAVYTHGCGCVRSATNITCQSSGQQRQAARQEEENSICKAHDSREGRLGYPLSAHQPGSGGPN [Q8TAV5]”, the “percentage of EdU-negative” value (hTERT-HMEC; [8]) was 5.652 ± 0.04%, the “percentage of EdU-negative” value (hTERT-HMEC; protein concentration 0.225 µM) was 12.7 ± 0.25% and the “percentage of EdU-negative” value (MCF7; [8]) was 24.95 ± 0.064%. For the same sequence, the “percentage of EdU-negative” value (MCF7; protein concentration 0.225 µM) was 26 ± 2.6%.

For “MTTQLRVVHLLPLLLACFVQTSPKQEKMKMDCHKDEKGTIYDYEAIALNKNEYVSFKQYVGKHILFVNVATYCGLTAQYPELNALQEELKPYGLVVLGFPCNQFGKQEPGDNKEILPGLKYVRPGGGFVPSFQLFEKGDVNGEKEQKVFSFLKHSCPHPSEILGTFKSISWDPVKVHDIRWNFEKFLVGPDGIPVMRWSHRATVSSVKTDILAYLKQFKTK”, the “percentage of EdU-negative” value (hTERT-HMEC; [8]) was 5.29 ± 0.31%, the “percentage of EdU-negative” value (hTERT-HMEC; protein concentration 0.225 µM) was 7.84 ± 0.53% and the “percentage of EdU-negative” value (MCF7; [8]) was 26.1 ± 1.7%. For the same sequence, the “percentage of EdU-negative” value (MCF7; protein concentration 0.225 µM) was 27.7 ± 0.58%.

For “MGAAARLSAPRALVLWAALGAAAHIGPAPDPEDWWSYKDNLQGNFVPGPPFWGLVNAAWSLCAVGKRQSPVDVELKRVLYDPFLPPLRLSTGGEKLRGTLYNTGRHVSFLPAPRPVVNVSGGPLLYSHRLSELRLLFGARDGAGSEHQINHQGFSAEVQLIHFNQELYGNFSAASRGPNGLAILSLFVNVASTSNPFLSRLLNRDTITRISYKNDAYFLQDLSLELLFPESFGFITYQGSLSTPPCSETVTWILIDRALNITSLQMHSLRLLSQNPPSQIFQSLSGNSRPLQPLAHRALRGNRDPRHPERRCRGPNYRLHVDGVPHGR”, the “percentage of EdU-negative” value (hTERT-HMEC; protein concentration 0.021 µM) was 4.83 ± 0.27%, the “percentage of EdU-negative” value (hTERT-HMEC; protein concentration 0.21 µM) was 7.53 ± 1.3% and the “percentage of EdU-negative” value (MCF7; protein concentration 0.021 µM) was 25.5 ± 1.3%. The “percentage of EdU-negative” value (MCF7; protein concentration 0.21 µM) was 24.9 ± 0.45%.

With “MAVRQWVIALALAALLVVDREVPVAAGKLPFSRMPICEHMVESPTCSQMSNLVCGTDGLTYTNECQLCLARIKTKQDIQIMKDGKC” the “percentage of EdU-negative” value (hTERT-HMEC; [8]) was 5.06 ± 0.67%, the “percentage of EdU-negative” value (hTERT-HMEC; protein concentration 0.225 µM) was 4.68 ± 0.28% and the “percentage of EdU-negative” value (MCF7; [8]) was 26.2 ± 1.9%. The “percentage of EdU-negative” value (MCF7; protein concentration 0.225 µM) was 25.8 ± 0.45%.
